The values that follow come from patent US20220106398A1 (IGM BIOSCIENCES, published 2022).

As a reminder, the Kd is a measure of binding affinity in units of concentration.

T1: human His6-GITR (human, UniProt Q9Y5U5 26-162)
T1 construct: His6-tagged recombinant protein; also called hGITR-His; human GITR-His
T1 sequence: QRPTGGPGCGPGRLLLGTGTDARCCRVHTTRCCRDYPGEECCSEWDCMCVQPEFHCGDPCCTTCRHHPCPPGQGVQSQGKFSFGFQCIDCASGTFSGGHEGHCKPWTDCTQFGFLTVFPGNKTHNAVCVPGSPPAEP

T2: cynomolgus monkey His6-GITR (cynomolgus monkey)
T2 construct: His6-tagged recombinant protein; also called cGITR-His; cyno GITR-His
T2 chain: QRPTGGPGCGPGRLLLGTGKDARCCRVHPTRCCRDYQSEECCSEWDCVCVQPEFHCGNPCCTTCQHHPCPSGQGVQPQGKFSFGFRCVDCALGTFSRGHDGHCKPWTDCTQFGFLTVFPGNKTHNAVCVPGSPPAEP

T3: mouse His6-GITR (mouse, UniProt O35714 20-153)
T3 construct: His6-tagged recombinant protein; also called mGITR-His; mouse GITR-His
T3 sequence: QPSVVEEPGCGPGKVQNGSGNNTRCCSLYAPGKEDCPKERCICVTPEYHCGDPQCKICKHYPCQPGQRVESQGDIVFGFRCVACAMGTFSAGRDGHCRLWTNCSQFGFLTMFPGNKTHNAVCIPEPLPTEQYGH

B1: GITR-Mab-3 scFv (scFv, V domains shown)
VH: QVQLVQSGAEVKKPGASVKVSCKASGYTFTSYDINWVRQAPGQGLEWMGWISGYNGNTNYAQKFQGRVTMTRDTSTSTVYMELSSLRSEDTAVYYCARSHEYYYYYGMDVWGQGTLVTVSS
VL: EIVMTQSPATLSVSPGERATLSCRASQSVSSSYLAWYQQKPGQAPRLLIYGASTRATGIPARFSGSGSGTEFTLTISSLQSEDFAVYYCQQYYTTPFTFGPGTKVDIK
notes: scFv in periplasmic extract, V5 tag
B2: GITR-Mab-17 scFv (scFv, V domains shown)
VH: QVQLVQSGAEVKKPGASVKVSCKASGYTFTSYGISWVRQAPGQGLEWMGWMNPNSGNTGYAQKFQGRVTMTRDTSTSTVYMELSSLRSEDTAVYYCARLGLWFGEYQYYFDYWGQGTLVTVSS
VL: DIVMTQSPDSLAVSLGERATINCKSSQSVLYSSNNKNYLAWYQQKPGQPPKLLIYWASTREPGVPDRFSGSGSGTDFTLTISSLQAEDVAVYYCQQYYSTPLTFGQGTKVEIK
notes: as for B1
B3: GITR-Mab-6 scFv (scFv, V domains shown)
VH: QVQLVQSGAEVKKPGASVKVSCKASGYAFTAYYLHWVRQAPGQGLEWMGWMNPNSGNTGYAQKFQGRVTMTRDTSTSTVYMELSSLRSEDTAVYYCAREGWGYYDGGFDPWGQGTLVTVSS
VL: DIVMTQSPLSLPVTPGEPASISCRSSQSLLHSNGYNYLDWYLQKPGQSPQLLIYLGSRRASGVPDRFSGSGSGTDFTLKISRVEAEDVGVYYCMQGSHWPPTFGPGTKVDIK
notes: as for B1
B4: GITR-Mab-5 scFv (scFv, V domains shown)
VH: EVQLLESGGGLVQPGGSLRLSCAASGFTFDAYAMHWVRQAPGKGLEWVSAIGTGGDTYYADSVKGRFTISRDNSKNTLYLQMNSLRAEDTAVYYCARDLYGSGSPQYYYYYGMDVWGQGTTVTVSS
VL: DIQMTQSPSSLSASVGDRVTITCRASQGIKNDLGWYQQKPGKAPKLLIYAASSLQSGVPSRFSGSGSGTDFTLTISSLQPEDFATYYCQQSYSVPFTFGQGTKVEIK
notes: as for B1
B5: GITR-Mab-23 scFv (scFv, V domains shown)
VH: EVQLLESGGGLVQPGGSLRLSCAASGFPFSTYAIHWVRQAPGKGLEWVSAISGSGGSTYYADSVKGRFTISRDNSKNTLYLQMNSLRAEDTAVYYCAGPDWYFDLWGRGTLVTVSS
VL: B4 VL with G28A, K30S, D32S, G34A, S53T, S56R, S91Y, V94T, F96Y, V104L
notes: as for B1
B6: GITR-Mab-26 scFv (scFv, V domains shown)
VH: QVQLVQSGAEVKKPGASVKVSCKASGYTFTSYGISWVRQAPGQGLEWMGWMNPNNGNTVYAQKFQGRVTMTRDTSTSTVYMELSSLRSEDTAVYYCAKDSDWYGAFDIWGQGTMVTVSS
VL: B4 VL with R24Q, G28S, K30S, N31R, D32W, G34A, A50S, V94T, F96W, V104L
notes: as for B1
B7: GITR-Mab-25 scFv (scFv, V domains shown)
VH: QVQLVQSGAEVKKPGASVKVSCKASGGTFSSYAISWVRQAPGQGLEWMGWVSGYNGNANYAQKFQGRVTMTRDTSTSTVYMELSSLRSEDTAVYYCARDRVESGYSYHDAFDIWGQGTMVTVSS
VL: B4 VL with A25T, G28S, K30R, N31R, D32Y, G34N, V94I, F96W, Q100P, E105D
notes: as for B1
B8: GITR-Mab-48 scFv (scFv, V domains shown)
VH: QVQLVQSGAEVKKPGASVKVSCKASGYSFTSHDIDWVRQAPGQGLEWMGWINPNSGGTNYAQKFQGRVTMTRDTSTSTVYMELSSLRSEDTAVYYCARIRGYYGSGSYHDAFDIWGQGTTVTVSS
VL: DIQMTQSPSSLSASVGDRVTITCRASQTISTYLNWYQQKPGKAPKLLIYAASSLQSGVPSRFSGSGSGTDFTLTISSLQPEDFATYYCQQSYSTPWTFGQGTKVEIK
notes: as for B1

Where a chain is given by its changes, count along the chain named.

The first test deals with T1, human His6-GITR. The test can be described thus: CARTERRA LSA, scFv periplasmic extract.
B1 came in with a Kd of 10.5 nM.

B2: the Kd was found to be 24.5 nM.

Regarding B3, the dissociation constant Kd turned out to be 0.1 nM.

On to B4, for which binding was characterised by a dissociation constant (Kd) of 8.3 nM.

For a further test, the target named is T1, human His6-GITR. The test can be described thus: ELISA, scFv periplasmic extract on coated His6-GITR. How it is done:
(§1) The SuperHuman-2.0 scFv Antibody Library (available from Distributed Bio, South San Francisco, Calif.) was used to perform selection with human, cynomolgus or mouse GITR proteins. Selected phage clones from overnight growth were inoculated into wells in 96 well deep well plates containing 1 mL of medium. scFv expression was induced by addition of IPTG (Teknova) to a final concentration of 1 mM. Plates were grown overnight after induction. To prepare periplasmic extracts (PPE), the plates containing the phage clones were centrifuged at 2500 rpm for 10 min, the supernatant discarded and then pellets treated with 75 μL of cold periplasmic extract buffer with appropriate concentration of protease inhibitors (Complete Mini, EDTA-free -Roche Applied Biosciences—Cat No 1836170). After shaking at room temperature for 10 min, 225 μL of cold ddH2O with added protease inhibitor (1 tablet/50 mL) was added per well and mixed by pipetting up and down. PPE extraction was completed by incubation at room temperature for an additional 1 hr. The plates were then centrifuged at 4000 rpm for 20 minutes and 200 μL of PPE supernatant was collected from each well and transferred to a new plate which was then blocked with equal volume of 4% milk (2% final) to prepare blocked PPE extracts. In the meantime, Maxisorp plates (Nunc 442404) coated with relevant antigen (human, mouse or cynomolgus monkey His6-GITR) at 50 μl/well of 1 μg/mL antigen or 2% BSA in PBS as control were prepared for ELISA analyses. Next, 50 μL of each blocked PPE extract was transferred to the pre-blocked ELISA plates coated with the relevant antigens. After incubation and washing 3× with PBS, 50 μL of anti-V5 tag antibody (tag included in the phage display constructs, Invitrogen Cat No R960-25) at 1:5000 dilution in 2% milk was added and the plates were incubated for 1 hr. […] After further washing 3× with PBST, 50 μl/well of TMB substrate was added and the plates were developed until positive controls were visible. The reaction was stopped with 50 μl/well of 2N H2SO4. Plates were read at 450 nm to determine ELISA signal from bound PPE derived scFv.
On the technique in general: ELISA stands for enzyme-linked immunosorbent assay.
For B1, the hGITR-His/BKG turned out to be 12.1 fold over background.

B2 returned a hGITR-His/BKG of 18.9 fold over background.

For B3, the hGITR-His/BKG was found to be 35.8 fold over background.

Molecule B4 registered a hGITR-His/BKG of 16.3 fold over background.

Take B5: the hGITR-His/BKG was determined as 35.6 fold over background.

On to B6, for which the hGITR-His/BKG came to 12.7 fold over background.

B7 registered a hGITR-His/BKG of 22.2 fold over background.

B8 gave a hGITR-His/BKG of 9.4 fold over background.

The next test has as its target T2, cynomolgus monkey His6-GITR. The test is described as above. How it is done: as §1
Take B1: the cGITR-His/BKG was found to be 11.1 fold over background.

B3: the cGITR-His/BKG came out at 7.5 fold over background.

Turning to B4, the cGITR-His/BKG came to 8 fold over background.

Regarding B5, the cGITR-His/BKG was found to be 23.2 fold over background.

For the molecule B6, the cGITR-His/BKG was determined as 0.8 fold over background.

The molecule B7 yielded a cGITR-His/BKG of 1.1 fold over background.

B8 showed a cGITR-His/BKG of 8.9 fold over background.

A further test deals with T3, mouse His6-GITR. Described as above. The method, then: as §1
In the case of B1, the mGITR-His/BKG is 1 fold over background.

B2 registered a mGITR-His/BKG of 1.1 fold over background.

In turn, B3 came in with a mGITR-His/BKG of 1 fold over background.

The molecule B4 displayed a mGITR-His/BKG of 1.2 fold over background.

B5 came in with a mGITR-His/BKG of 0.9 fold over background.

Turning to B6, the mGITR-His/BKG turned out to be 1.1 fold over background.

B7 showed a mGITR-His/BKG of 1.1 fold over background.

In turn, B8 showed a mGITR-His/BKG of 9.5 fold over background.
